Measured values from patent US20250215412A1 (NOVOZYMES A S, published 2025).

B1: Chryseobacterium sp-62563 propeptide F99G (protein)
chain: NQDPNLVAKESNETAMKDFGKTVPVGIEKEDGKFKISFMVTAQPYEIKDSKENAAYISMIKTAVENETPIHVFLKANTNEIAKVDKATDDDIRYFKSVGTKEVKEENRK
B2: Chryseobacterium gambrini propeptide I23S (protein)
chain: NQDPNLVVKENNENAMRDFGSTSPVGIQKEGNVLKVSFIISAQFYEIKDSKENEAFISMIKSAIENETPVHVFLKKNSNEIAKVEKATDEDVTYFKSIFTKEVKEENRK
B3: Chryseobacterium gambrini propeptide F99A (protein)
chain: NQDPNLVVKENNENAMRDFGSTIPVGIQKEGNVLKVSFIISAQFYEIKDSKENEAFISMIKSAIENETPVHVFLKKNSNEIAKVEKATDEDVTYFKSIATKEVKEENRK
B4: Chryseobacterium gambrini propeptide Y94P (protein)
chain: NQDPNLVVKENNENAMRDFGSTIPVGIQKEGNVLKVSFIISAQFYEIKDSKENEAFISMIKSAIENETPVHVFLKKNSNEIAKVEKATDEDVTPFKSIFTKEVKEENRK
B5: Chryseobacterium gambrini propeptide Y45T (protein)
chain: NQDPNLVVKENNENAMRDFGSTIPVGIQKEGNVLKVSFIISAQFTEIKDSKENEAFISMIKSAIENETPVHVFLKKNSNEIAKVEKATDEDVTYFKSIFTKEVKEENRK
B6: Chryseobacterium gambrini propeptide F99G (protein)
chain: NQDPNLVVKENNENAMRDFGSTIPVGIQKEGNVLKVSFIISAQFYEIKDSKENEAFISMIKSAIENETPVHVFLKKNSNEIAKVEKATDEDVTYFKSIGTKEVKEENRK
B7: Chryseobacterium gambrini propeptide F38C (protein)
chain: NQDPNLVVKENNENAMRDFGSTIPVGIQKEGNVLKVSCIISAQFYEIKDSKENEAFISMIKSAIENETPVHVFLKKNSNEIAKVEKATDEDVTYFKSIFTKEVKEENRK
B8: Chryseobacterium gambrini propeptide F99K (protein)
chain: NQDPNLVVKENNENAMRDFGSTIPVGIQKEGNVLKVSFIISAQFYEIKDSKENEAFISMIKSAIENETPVHVFLKKNSNEIAKVEKATDEDVTYFKSIKTKEVKEENRK
B9: Chryseobacterium sp-62563 propeptide R108N (protein)
chain: NQDPNLVAKESNETAMKDFGKTVPVGIEKEDGKFKISFMVTAQPYEIKDSKENAAYISMIKTAVENETPIHVFLKANTNEIAKVDKATDDDIRYFKSVFTKEVKEENNK
B10: Chryseobacterium sp-62563 propeptide E13C (protein)
chain: NQDPNLVAKESNCTAMKDFGKTVPVGIEKEDGKFKISFMVTAQPYEIKDSKENAAYISMIKTAVENETPIHVFLKANTNEIAKVDKATDDDIRYFKSVFTKEVKEENRK
B11: Chryseobacterium sp-62563 propeptide E10P (protein)
chain: NQDPNLVAKPSNETAMKDFGKTVPVGIEKEDGKFKISFMVTAQPYEIKDSKENAAYISMIKTAVENETPIHVFLKANTNEIAKVDKATDDDIRYFKSVFTKEVKEENRK
B12: Chryseobacterium sp-62563 propeptide T14P (protein)
chain: NQDPNLVAKESNEPAMKDFGKTVPVGIEKEDGKFKISFMVTAQPYEIKDSKENAAYISMIKTAVENETPIHVFLKANTNEIAKVDKATDDDIRYFKSVFTKEVKEENRK
B13: Chryseobacterium sp-62563 propeptide K101A (protein)
chain: NQDPNLVAKESNETAMKDFGKTVPVGIEKEDGKFKISFMVTAQPYEIKDSKENAAYISMIKTAVENETPIHVFLKANTNEIAKVDKATDDDIRYFKSVFTAEVKEENRK
B14: Chryseobacterium sp-62563 propeptide K109C (protein)
chain: NQDPNLVAKESNETAMKDFGKTVPVGIEKEDGKFKISFMVTAQPYEIKDSKENAAYISMIKTAVENETPIHVFLKANTNEIAKVDKATDDDIRYFKSVFTKEVKEENRC
B15: Chryseobacterium sp-62563 propeptide K101D (protein)
chain: NQDPNLVAKESNETAMKDFGKTVPVGIEKEDGKFKISFMVTAQPYEIKDSKENAAYISMIKTAVENETPIHVFLKANTNEIAKVDKATDDDIRYFKSVFTDEVKEENRK
B16: Chryseobacterium sp-62563 propeptide T100Q (protein)
chain: NQDPNLVAKESNETAMKDFGKTVPVGIEKEDGKFKISFMVTAQPYEIKDSKENAAYISMIKTAVENETPIHVFLKANTNEIAKVDKATDDDIRYFKSVFQKEVKEENRK
B17: Chryseobacterium sp-62563 propeptide G20D (protein)
chain: NQDPNLVAKESNETAMKDFDKTVPVGIEKEDGKFKISFMVTAQPYEIKDSKENAAYISMIKTAVENETPIHVFLKANTNEIAKVDKATDDDIRYFKSVFTKEVKEENRK
B18: Chryseobacterium sp-62563 propeptide K101C (protein)
chain: NQDPNLVAKESNETAMKDFGKTVPVGIEKEDGKFKISFMVTAQPYEIKDSKENAAYISMIKTAVENETPIHVFLKANTNEIAKVDKATDDDIRYFKSVFTCEVKEENRK
B19: Chryseobacterium sp-62563 propeptide T100E (protein)
chain: NQDPNLVAKESNETAMKDFGKTVPVGIEKEDGKFKISFMVTAQPYEIKDSKENAAYISMIKTAVENETPIHVFLKANTNEIAKVDKATDDDIRYFKSVFEKEVKEENRK
B20: Chryseobacterium defluvii propeptide Y47T (protein)
chain: ATNQDVVGKENTSNHVAARDFGKTVPVGINEENGTLKVSFILSAQFTEIKPSKENEEYISLIRQAIQNESPIHVFMKLNSNEIVKVEKGTEEDVKYFRSILTKEVKEENRK
B21: Chryseobacterium defluvii propeptide L101G (protein)
chain: ATNQDVVGKENTSNHVAARDFGKTVPVGINEENGTLKVSFILSAQFYEIKPSKENEEYISLIRQAIQNESPIHVFMKLNSNEIVKVEKGTEEDVKYFRSIGTKEVKEENRK
B22: Chryseobacterium defluvii propeptide L101A (protein)
chain: ATNQDVVGKENTSNHVAARDFGKTVPVGINEENGTLKVSFILSAQFYEIKPSKENEEYISLIRQAIQNESPIHVFMKLNSNEIVKVEKGTEEDVKYFRSIATKEVKEENRK
B23: Chryseobacterium defluvii propeptide L101K (protein)
chain: ATNQDVVGKENTSNHVAARDFGKTVPVGINEENGTLKVSFILSAQFYEIKPSKENEEYISLIRQAIQNESPIHVFMKLNSNEIVKVEKGTEEDVKYFRSIKTKEVKEENRK
B24: Chryseobacterium proteolyticum propeptide L100A (protein)
chain: NQEINGKEKLSVNDSKLKDFGKTVPVGIDEENGMIKVSFMLTAQFYEIKPTKENEQYIGMLRQAVKNESPVHIFLKPNSNEIGKVESASPEDVRYFKTIATKEVKEENRK
B25: Chryseobacterium proteolyticum propeptide L100G (protein)
chain: NQEINGKEKLSVNDSKLKDFGKTVPVGIDEENGMIKVSFMLTAQFYEIKPTKENEQYIGMLRQAVKNESPVHIFLKPNSNEIGKVESASPEDVRYFKTIGTKEVKEENRK

These molecules were tested against T1, Chryseobacterium sp-62563 deamidase C230H (Chryseobacterium sp-62563) (assay: cell-based or functional assay).
T1 sequence: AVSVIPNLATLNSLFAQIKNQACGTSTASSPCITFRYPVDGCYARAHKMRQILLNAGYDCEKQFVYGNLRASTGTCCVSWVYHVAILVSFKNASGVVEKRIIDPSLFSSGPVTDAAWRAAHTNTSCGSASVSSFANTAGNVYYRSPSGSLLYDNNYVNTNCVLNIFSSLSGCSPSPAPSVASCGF

**Q.** Which Leakage activity does the source give for B1 here?
**A.** The Leakage activity was 0%.

Each molecule was assayed against Chryseobacterium culicis deamidase polypeptide, wildtype, with His-tag (Chryseobacterium culicis) (assay: cell-based or functional assay).

**Q.** “Chryseobacterium culicis propeptide F38C” was tested. Which NanoDSF thermal unfolding temperature did it give?
**A.** The NanoDSF thermal unfolding temperature was 79.5 ° C.

**Q.** “Chryseobacterium culicis propeptide Y94P” was tested. Which NanoDSF thermal unfolding temperature did it give?
**A.** The NanoDSF thermal unfolding temperature was 82.3 ° C.

**Q.** Which Leakage activity does the source give for “Chryseobacterium culicis propeptide F99K + N100T + E103V + R104K + G105E + D106E + S107N + K108R” here?
**A.** Its Leakage activity is 3%.

What follows are molecules tested against T2, Chryseobacterium gambrini deamidase polypeptide, wildtype, with His-tag (Chryseobacterium gambrini) (assay: cell-based or functional assay).
T2 sequence: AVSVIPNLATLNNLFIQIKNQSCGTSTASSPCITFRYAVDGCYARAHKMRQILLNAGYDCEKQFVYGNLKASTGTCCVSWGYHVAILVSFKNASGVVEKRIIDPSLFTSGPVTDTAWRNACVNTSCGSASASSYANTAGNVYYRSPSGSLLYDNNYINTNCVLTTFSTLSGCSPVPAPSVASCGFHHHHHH

**Q.** For B2, which NanoDSF thermal unfolding temperature is on record?
**A.** The NanoDSF thermal unfolding temperature was 77.2 ° C.

**Q.** How did the NanoDSF thermal unfolding temperature turn out when B3 was run?
**A.** The NanoDSF thermal unfolding temperature was 70.4 ° C.

**Q.** How did the NanoDSF thermal unfolding temperature turn out when B4 was run?
**A.** Its NanoDSF thermal unfolding temperature is 81.1 ° C.

**Q.** For B5, which NanoDSF thermal unfolding temperature is on record?
**A.** The NanoDSF thermal unfolding temperature was 79.3 ° C.

**Q.** With B6 as the molecule, how does the NanoDSF thermal unfolding temperature read?
**A.** The NanoDSF thermal unfolding temperature was 69.3 ° C.

**Q.** B7 was tested. Which NanoDSF thermal unfolding temperature did it give?
**A.** Its NanoDSF thermal unfolding temperature is 82.3 ° C.

**Q.** With B8 as the molecule, how does the NanoDSF thermal unfolding temperature read?
**A.** Its NanoDSF thermal unfolding temperature is 78.4 ° C.

Each molecule was assayed against T3, Chryseobacterium sp-62563 deamidase polypeptide (second polypeptide, deamidase domain), wildtype (Chryseobacterium sp-62563) (assay: cell-based or functional assay).
T3 sequence: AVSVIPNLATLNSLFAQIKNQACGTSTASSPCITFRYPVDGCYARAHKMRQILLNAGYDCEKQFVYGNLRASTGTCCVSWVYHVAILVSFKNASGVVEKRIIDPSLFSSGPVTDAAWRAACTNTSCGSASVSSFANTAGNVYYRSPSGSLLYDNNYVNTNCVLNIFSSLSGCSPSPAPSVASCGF

**Q.** What does the source list for B1?
**A.** Leakage activity: 9%; NanoDSF thermal unfolding temperature: 74.1 ° C.; Relative activity of maturated deamidase (% initial rate): > 100

**Q.** With B9 as the molecule, how does the Leakage activity read?
**A.** The Leakage activity was 0%.

**Q.** Which Leakage activity does the source give for B10 here?
**A.** The Leakage activity was 0%.

**Q.** Which Leakage activity does the source give for B11 here?
**A.** The Leakage activity was 0%.

**Q.** Which Leakage activity does the source give for B12 here?
**A.** The Leakage activity was 0%.

**Q.** Which Relative activity of maturated deamidase (% initial rate) does the source give for B13 here?
**A.** Its Relative activity of maturated deamidase (% initial rate) is 36.

**Q.** With B14 as the molecule, how does the Leakage activity read?
**A.** Its Leakage activity is 0%.

**Q.** How did the Relative activity of maturated deamidase (% initial rate) turn out when B15 was run?
**A.** Its Relative activity of maturated deamidase (% initial rate) is 46.

**Q.** Which Relative activity of maturated deamidase (% initial rate) does the source give for B16 here?
**A.** Its Relative activity of maturated deamidase (% initial rate) is 79.

**Q.** How did the Leakage activity turn out when B17 was run?
**A.** The Leakage activity was 0%.

**Q.** Which Relative activity of maturated deamidase (% initial rate) does the source give for B18 here?
**A.** The Relative activity of maturated deamidase (% initial rate) was 38.

**Q.** Which Relative activity of maturated deamidase (% initial rate) does the source give for B19 here?
**A.** The Relative activity of maturated deamidase (% initial rate) was 75.

The molecules below were run against T4, Chryseobacterium sp-62563 deamidase C169S (Chryseobacterium sp-62563) (assay: cell-based or functional assay).
T4 sequence: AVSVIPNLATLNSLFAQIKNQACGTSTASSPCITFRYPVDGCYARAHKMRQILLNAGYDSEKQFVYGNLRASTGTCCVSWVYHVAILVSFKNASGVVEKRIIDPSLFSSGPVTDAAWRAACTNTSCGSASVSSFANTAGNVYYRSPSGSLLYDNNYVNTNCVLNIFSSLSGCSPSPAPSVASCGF

**Q.** With B1 as the molecule, how does the Leakage activity read?
**A.** The Leakage activity was 3%.

**Q.** What about the Relative activity of maturated deamidase (% initial rate) of the same molecule?
**A.** Its Relative activity of maturated deamidase (% initial rate) is over 100.

The molecules below were run against T5, Chryseobacterium defluvii deamidase polypeptide, wildtype, with His-tag (Chryseobacterium defluvii) (assay: cell-based or functional assay).
T5 sequence: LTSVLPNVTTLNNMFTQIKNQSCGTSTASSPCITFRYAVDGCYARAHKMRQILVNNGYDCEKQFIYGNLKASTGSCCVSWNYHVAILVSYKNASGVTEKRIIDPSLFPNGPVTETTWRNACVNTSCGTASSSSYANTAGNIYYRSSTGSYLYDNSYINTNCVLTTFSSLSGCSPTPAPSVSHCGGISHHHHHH

**Q.** B20 was tested. Which NanoDSF thermal unfolding temperature did it give?
**A.** Its NanoDSF thermal unfolding temperature is 80.4 ° C.

**Q.** B21 was tested. Which NanoDSF thermal unfolding temperature did it give?
**A.** The NanoDSF thermal unfolding temperature was 79.8 ° C.

**Q.** Which NanoDSF thermal unfolding temperature does the source give for B22 here?
**A.** The NanoDSF thermal unfolding temperature was 82 ° C.

**Q.** For B23, which NanoDSF thermal unfolding temperature is on record?
**A.** Its NanoDSF thermal unfolding temperature is 80.5 ° C.

Each molecule was assayed against T6, Chryseobacterium proteolyticum deamidase polypeptide, wildtype, with His-tag (Chryseobacterium proteolyticum) (UniProt Q9AQQ8) (assay: cell-based or functional assay).
T6 sequence: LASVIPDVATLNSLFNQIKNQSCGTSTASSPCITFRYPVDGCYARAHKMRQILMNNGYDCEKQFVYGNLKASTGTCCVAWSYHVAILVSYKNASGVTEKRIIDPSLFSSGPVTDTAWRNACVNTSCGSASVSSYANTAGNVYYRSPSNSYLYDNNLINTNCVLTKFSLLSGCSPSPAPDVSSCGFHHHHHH

**Q.** B24 was tested. Which NanoDSF thermal unfolding temperature did it give?
**A.** Its NanoDSF thermal unfolding temperature is 80 ° C.

**Q.** With B25 as the molecule, how does the NanoDSF thermal unfolding temperature read?
**A.** The NanoDSF thermal unfolding temperature was 77.3 ° C.
